The DeepSol protein solubility set

Assay: soluble on expression in E. coli; label from the status in PepcDB or PDB records

| Sequence | soluble on expression in E. coli |
| --- | --- |
| MGSDKIHHHHHHMAGPGCMLMFNRAAKDDATPRMRAGVAVNTGHSLAYQHVIEPSAGYQAKLEAELNPENGRRLSASLIAQILNLGSTSDPDIPAASQLAMAILKTIEAFQISREREPGPEHAPLDVLPLALRSPDADERAHEVCQRIAEHARALWQRMINERSGIPITHDTYLKILQLREPYFSFDFWILDEYQDTTPVVDELVNQQEGQKLYIGDPYQAIYSWRGAINALAGPIDRGLPVHYLTDSFRYNHQIAGMATLILRALGEPVPVRGQPRNFIHRRADDNHTIICRTNLSILVRAGELIVRGSPVFVDGGIPKSTYQRIESALALFQGRPNDVRISTLRQMGSWTAFVDYARGLGERADDMMNLIALVEQYQSQLPVLIDTLKRRLPYRNPRKPGQTTLITAHRSKGRQFAHVELDPDIGLPGDLMIKIQNQAPLQPKERESLHLLYVALTRAELSLELPKRIKENLKLLHGWFNRGTDTAETFTAKTTIPLPKAHAQTAQRARTEAFIRAHRRTD | not soluble |
| MGSDKIHHHHHHMAHQPVGTGSSIEVSVNPGHSRTSGVISHMSDTLRVAIVGDSDLQGAHVAISKSEFSPAADATDYLVLKDKPATISISRPSSQRVVGITTGSTTLIDFPEGTGSPFGINDMVTLRVIDQPYFEAAIGFGTVTKVWNAANIGGHYSTRITVNADTSGIKTDYVSTNWAELRSSFKVSSLGIGVGGKTGALYFQQVQITGE | not soluble |
| MGSDKIHHHHHHMAKAKTQYVCQNCGYISATYLGRCPNCGGWNTLVEETVSSSKSVPRQTAAGSKVKPTRMNDVTITKETRVKTGLDELNRVLGGGVVPGSLVLIGGDPGIGKSTLLLQVSGQLANTGGTVLYVSGEESASQIKMRAGRLGVANSGMYLYPETDMPSIEDVINQMQPDYVVIDSVQTMNVPEMNSAVGSVTQIREVTAELMRIAKSKGVTIFIVGHVTKEGAIAGPKILEHMVDTVLYFEGDMHHTYRILRSVKNRFGSTNEIGIFEMHQDGLQEVANPSEIFLEERLAGATGSAVVVSMEGTRPILVEIQALISPTMYGNAKRTSSGLDHNRVSLIMAVLEKRANLMLQNQDAYLKATGGVKLDEPAIDLAMAVAIASSYRDKEISPTDCFVGEIGLTGEVRRVNRIEERVKEAAKLGFKRIFVPRNNLQGWHAPKDIQVIGVTSIAEALHKVFN | not soluble |
| MGSDKIHHHHHHMAKEEALAEAQLDSNRKKIQYRNNNISTQFVTPKYISLLIEKYWHEKNKFRRLLIVIECSKYKNESTIFFFRQVMSGEKDWFIRNYCLRILQRFDEVVYLPPKGKGAQEKYNTLVKHFGCDYKEDIGRTPEDIVKELYENDYIEHAKYFDAFISHAVSNADMVDEFVFKLNSLGLVAFVDWKSDRQDLNRSKLSHYTPTILELRMRQSKNLILIRTKESDLSSWVTWEINYFSKLGKKIAVLNLDNEHGKPHELIDTYPTVRIIDGNILVFNKSKQHKLVDWINES | not soluble |
| MGSDKIHHHHHHMAKLLPYQKRWINDRAPVKFWEKSRRIGASWGDAADSALVASKVKDDGGMSTYYLSYNKDMTRQYVADVAGWAKKFNLVAGELEEIVLADEDKDVTIYQVRFASGHVVQGLSSNPSNLRSKQGRVRIDEAAFVEDLGELLKAAIALTMWGGDVAVISTHNGEDSEFNQYIQDIRAGKREYSLHRTDLDDALAEGLYKAICSAKGLTWSVEAEIRWRQKLIADYGDGADEELFCVPSRSSGNWLSRNLIEPCMSAEIPVLRWSPPTANFVDWPLDRAYREVQDWCEGELRPLLDKLHREYVGCRHFFGEDFGRSGDLTVDVPLLELENLSLVTPFLLELRNAPYRTQEQMLAYFVDRLPRFSGGALDARGNGQALAEYARQRYGPELIQEVMLSQGWYREHMPPLKARLEDRTILLPKDAGVLDDLRGIKVFKGIARPPEASIKGKDGQRHCDSAVALALALYACNSIEAGEEWACATAGGGMARRMTHGY | not soluble |
| MGSDKIHHHHHHMAKSKSTYSCTECGGQTLKWQGQCPHCQAWNTLVEAMSEKAAARFTPVSESREVQSLSEVEAEEEQRYSTGLLEFDRVLGGGLVQGGVVLLGGDPGIGKSTLLLQALCNMSLLPLARNVLYVSGEESARQVAMRAKRMGVDAKALHLLAEIRLERIQEVLAERKPDVAVIDSIQTVYSDALQSAPGSVAQVRECAAQLTRLAKASGTGMILVGHVTKEGALAGPRVLEHMVDTVLYFEGDTHSSFRLIRAFKNRFGAVNELGVFAMTEKGLREVSNPSALFLSHHGGQVPGSCIMVTQEGTRPLLVEIQALVDEAHSPNARRLSVGLEQNRLAMLLAVLHRHAGIACFDQDVFVNAVGGVKITEPGADLAVLLAIVSSLKNRPLPEKTVVFGEVGLAGEVRPVQRGLERLREAAKLGFVQAIVPKANKPKATPPGIEIIAVERVEEAVARMR | not soluble |
| MGSDKIHHHHHHMALRIYGDSISGNCLKVKWTADRLGIAYDWIETNVLTAETRTSAFMALNPAGQVPLAVFPDGRPLAQSNAIIFHLAEGSDLIPGNAFDRAKMLEWMFWEQYSHEPYIAVARFQVLYLGKPVESLEPRLIERGADALARLETQLQRSTFLVGDKLTLADVALVAYTRVAHEGGFDLSLYPAVEAWVGRVEADLGIR | not soluble |
| MGSDKIHHHHHHMALTQITQTVSPQPTPPELRKYDYDLVIVGGGIVGLTLASALKDSGLNILLIEAKVSSAAVAKGQAYAVHLLSALIYQGIGIWDKILPQIAKYRQVRLSDADYPGVVEFETTDLGTPELGYVAEHQALLEPLQEFVQNCPNVTYLCPAEVVSTNYQQNEVVIAVKIADQLNTIRSKLLVAADGSRSPIRQAAGIKTHGWKYWQSCIVAFVKPEKPHNDTAYERFWPSGPFAILPLPGNRCRIVWTAPHDEAKALCALNDEEFLQELSQRFGKQMGKLELLGDRFVFQVQLMQSDRYVLPRLALVGDAAHNCHPVGGQGLNLGIRDVAALAQVIQKAHQAGEDIGNIRVLKRYESWRQKENLAILGFTDMLDRMFSNQFPPLVFVRRLGLWFLQSVPALKTFMLKLMIGLKGKTPELAKR | not soluble |
| MGSDKIHHHHHHMAMVVLGAGGGLGRAITLELSKQYPDERIFALSRQPEVPETDSSDVTYCRIEDYDEKALGAWVSEFKNNGEQLSGVVSTIGMLHDEETFPEKKLTDITADNLNKLFSVNAVKPMLALKAFLPILDRKKTRFWVQLSAKVGSIEDNYLGGWYAYRSSKAGLNMLLKTASIELKRTHKNLIVAAIHPGTTDTRLSEPFQERISTDKLYSPELSAERIVAVVKNLKPENTGALWHWDGSRLPY | not soluble |
| MGSDKIHHHHHHMANELKVLEGMDVVALARKHSDQATVSGQVIPWQTSLSFDPSVDSDSTVTKDGNVATRSSASTDLEVEFLNNTAAIADVMYDSLFDGELLDFWILYRKRKNSAGKYYAWYMQVTVQEDSSDNDPDDHSTRDVTFSVNGTPKRGWTTLDDETQEQVDYVFLGVGKVTDTDKTGGGTVWDKDVDPGTNTADTAPAQSSSGTAPAQGGSSTGA | not soluble |
| MGSDKIHHHHHHMANPQSPHATLQLPQGMEITAEIKPGYDAILTREALELVAALHRTFEPRRQQLLQARAERTKRLDAGERPDFLAETKSVREGDWKIAPLPQDLQCRRVEITGPVERKMIINALNSGADSYMTDFEDSNAPSWDNQITGHINLKDAVRRTISLEQNGKSYALNDKVATLIVRPRGWHLDEKHVKVDGKRVSGSIFDFALFMVHNAKELLARGSGPYFYLPKMESHLEARLWNDIFVAAQEAVGVPRGTIRATVLIETILAAFEMDEILYELREHSSGLNAGRWDYIFSAIKKFKSDRDFCLADRSQITMTSPFMRAYALLLLKTCHRRNAPAIGGMSALIPIRNDPAANDKAMAGVRSDKARDAGDGYDGGWVAHPGLVAIAMEEFVKVLGDKPNQIGKQRDDVLVTATDLLDFRPETPITENGLRNNINVGIHYLGAWLTGNGCVPIHNLMEDAATAEISRSQVWQWIRSPKGKLDDGRKVTAELVRAMSAQELDKVKQAVGGDTKPYERAAQIFEEMSTSEQFTDFLTLPLYEEI | not soluble |
| MGSDKIHHHHHHMANQVDIMKDEVAKMTLDFTEPQEILLEISPSLQKSAWQESQVYATPSSRWCAYTNQICLYAFLNWIKTESVSKASVWYSSPGIPAFWEFVNGTAILLEEKRVVLIPSEAIDDSELEVPQEWVDIPSWVADYYLAVQVTPDGEWVRIWGYITHQELKSLAHYDQVDRTYCIDARYLIKDLNAFWITYQFCIKEEMKAAIAPLPELSTAQAENMQQLLSDSSVTFVRLAVPFTTWAALLDNEQWRQCLYEQHQRCLRRAVPTQFSQVQVNLSRWLLQIYDASWQAIETFFEPNTSSLAFNFRSSSGLNAAAIKRAKLIDLGMQIEAQKVILLVALMPEVNQQVSIRVQLHPACNQPYLPANIKLVLLSEQGEILQEVQARVQDMYVQLKLFDGEVGERFSIQVTLDSCQITENFVI | not soluble |
| MGSDKIHHHHHHMAQDIRVFKSKRDIETAVIQLILEEDFSKLTIQQICQKALVSRSTFYSHYLDKYDVVEQLVAKTITQLETIFSQKYQSQVSPENLKDYLADIYQFYQENARLLKALLKTPLTGTGNFEEAFSKLCQTYINHLAATTKDNDHLPPQLLAEIFTANVVTLMKWIIEHGPSENVTHFADWLHDLFLQYLQE | not soluble |
| MGSDKIHHHHHHMAQGTLYIVSAPSGAGKSSLIQALLKTQPLYDTQVSVSHTTRQPRPGEVHGEHYFFVNHDEFKEMISRDAFLEHAEVFGNYYGTSREAIEQVLATGVDVFLDIDWQGAQQIRQKMPHARSIFILPPSKIELDRRLRGRGQDSEEVIAKRMAQAVAEMSHYAEYDYLIVNDDFDTALTDLKTIIRAERLRMSRQKQRHDALISKLLAD | soluble |
| MGSDKIHHHHHHMAQIISINDNQRLQLEPLEVPSRLLLGPGPSNAHPSVLQAMNVSPVGHLDPAFLALMDEIQSLLRYVWQTENPLTIAVSGTGTAAMEATIANAVEPGDVVLIGVAGYFGNRLVDMAGRYGADVRTISKPWGEVFSLEELRTALETHRPAILALVHAETSTGARQPLEGVGELCREFGTLLLVDTVTSLGGVPIFLDAWGVDLAYSCSQKGLGCSPGASPFTMSSRAIEKLQRRRTKVANWYLDMNLLGKYWGSERVYHHTAPINLYYALREALRLIAQEGLANCWQRHQKNVEYLWERLEDIGLSLHVEKEYRLPTLTTVCIPDGVDGKAVARRLLNEHNIEVGGGLGELAGKVWRVGLMGFNSRKESVDQLIPALEQVLR | soluble |
| MGSDKIHHHHHHMAQIIVVTSGKGGVGKTTSSAAIATGLALKGKKTVVIDFDIGLRNLDLIMGCERRVVYDFVNVINGEANLNQALIKDKRCDKLFILPASQTRDKDALTKEGVGRVLENLAKDFDYIVCDSPAGIEQGAMMALYFADIAIVTTNPEVSSVRDSDRILGMLQSRSRRAELSLEPIKEYLLLTRYSPARVKTGEMLSVEDVKEILAIELLGVIPESQSVLKASNSGVPVIIDQESDAGLAYGDTVARLLGDDVPVRFITEEKKGFLKRIFGS | not soluble |
